Four molecules from patent US7572600B2, “Enzymatic activities in chemokine-mediated inflammation” (Chemocentryx, Inc., priority 2004, dated 2009) can be followed below.

One experiment concerns the target T1, L1.2-CCR1 cells (Homo sapiens, UniProt P32246).
T1 construct: expressed in transfected cells; host or cells: murine L1.2 cells (G-418 selected transfectant)
T1 sequence (P32246 1-355): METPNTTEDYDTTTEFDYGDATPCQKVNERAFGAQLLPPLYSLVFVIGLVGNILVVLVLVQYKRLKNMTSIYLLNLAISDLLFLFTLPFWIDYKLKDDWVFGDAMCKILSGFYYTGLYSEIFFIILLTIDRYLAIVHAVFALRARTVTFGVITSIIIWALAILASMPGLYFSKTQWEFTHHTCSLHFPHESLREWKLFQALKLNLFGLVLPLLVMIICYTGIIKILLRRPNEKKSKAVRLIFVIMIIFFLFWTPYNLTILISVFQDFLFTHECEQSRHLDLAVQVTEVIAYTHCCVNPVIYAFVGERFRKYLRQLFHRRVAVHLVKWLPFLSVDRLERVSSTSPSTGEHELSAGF
As to the kind of experiment: L1.2-CCR1 chemotaxis assay. The settings on record: three-point titrations 0.5, 5, 50 nM, 2 hr. Type of experiment: cell-based. As for the experimental part: (§1) Chemotaxis assay. L1.2-CCR1 transfectants, THP-1 cells, human monocytes and human neutrophils were collected by centrifugation and resuspended in HBSS containing 0.1% BSA. Chemotaxis assays were performed in 96-well ChemoTx® microplates (Neuroprobe, Rockville, Md.) as follows. Chemokines were added to the lower wells (final volume 29 μL), and 20 μL of cell suspension (5×10^6 cells/mL) was added to the polycarbonate filter (3 μm pore size for neutrophils, 5 μm for other 3 cell types). After incubation at 37° C. in the presence of 5% CO2 for 1 hr (neutrophils), 90 min (monocytes) or 2 h (THP-1 and L1.2-CCR1), cells were removed from the upper surface of the filter by scraping. Cells that migrated into the lower chamber were quantified by using the CyQuant cell proliferation assay kit (Molecular Probes, Eugene, Oreg.) and analyzed with a Tecan (Durham, N.C.) fluorimeter (excitation at 480 nm, emission at 530 nm). Data were analyzed and plotted in arbitrary units of fluorescence using Prism (GraphPad Software, San Diego, Calif.).

Experiment [1] concerns the target T2, CCR1 (Homo sapiens, UniProt P32246).
T2 sequence (P32246 1-355): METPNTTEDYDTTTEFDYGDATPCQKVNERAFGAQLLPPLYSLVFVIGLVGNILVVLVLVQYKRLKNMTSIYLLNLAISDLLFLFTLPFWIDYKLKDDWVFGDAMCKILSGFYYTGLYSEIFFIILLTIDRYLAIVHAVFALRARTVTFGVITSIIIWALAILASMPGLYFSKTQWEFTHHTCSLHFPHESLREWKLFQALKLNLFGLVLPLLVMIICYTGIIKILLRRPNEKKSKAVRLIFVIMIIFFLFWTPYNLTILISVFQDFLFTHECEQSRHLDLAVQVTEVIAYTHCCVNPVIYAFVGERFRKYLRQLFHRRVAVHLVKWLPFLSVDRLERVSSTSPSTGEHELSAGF
The experiment in a line: Calcium mobilization in murine L1.2 cells expressing human CCR1. Type of experiment: cell-based. On the set-up: expressed in transfected cells; host or cells: murine L1.2 cells (G-418 selected transfectant). Conditions: for calcium mobilization: L1.2-CCR1 cells. As for the experimental part: (§2) Calcium Mobilization Assay. Cells were loaded for 1 hour with 2 μM indo-1/AM dye (Molecular Probes, Eugene, Oreg.) in culture medium, then washed with 10 ml PBS and resuspended at 10^6/ml in HBSS containing 1% FBS. Cytosolic calcium responses were determined using a Photon Technology International (Lawrenceville, N.J.) fluorimeter, with excitation at 350 nm and dual emission at 400 and 490 nm. Alternatively, cells were loaded with 5 μg/ml Fluo-4 AM dye (Molecular Probes, Eugene, Oreg.), then washed and analyzed on a Fluorometric Imaging Plate Reader 384 (FLIPR^384 Molecular Devices, Sunnyvale, Calif.), with 505 nm excitation and 530 nm emission.
(§3) Receptor signaling assay. For individual measurements, cells were loaded for 45 min at room temperature with 2 μM indo-1/AM (Invitrogen, Carlsbad Calif.) in culture medium, then washed with 10 ml PBS and resuspended at 10^6 cells/ml in HBSS containing 0.1% BSA. Cytosolic calcium levels were determined using a Photon Technology International fluorimeter (excitation at 350 nm, ratio of dual emission at 400 and 490 nm). For measuring calcium dose responses, cells were analyzed with a Fluorometric Imaging Plate Reader 384 (FLIPR^384) (Molecular Devices, Sunnyvale, Calif.). Cells were loaded for 1 hr at 37° C. with 5 μM fluo-4 in HBSS with 0.1% BSA, then washed, transferred to black-wall 96-well plates, and subsequently excited at 505 nm with emission recorded at 530 nm with a standard protocol provided by the manufacture. Cells were stimulated with agonists 20 s after the monitoring of fluorescence began. Data were analyzed and plotted in arbitrary units of fluorescence using Prism. To ensure that responses were specific to FPRL1, we utilized a selective small-molecule antagonist of human FPRL1, generated by ChemoCentryx, which was optimized from a high throughput compound library screening approach.
(A change in cytosolic calcium serves as a functional read-out for many receptors and channels.)

In a further experiment the target is T3, CCR9 (Homo sapiens, UniProt P51686).
T3 construct: endogenous in cells; host or cells: Molt4 cells (per the assay name)
T3 sequence (P51686 1-369): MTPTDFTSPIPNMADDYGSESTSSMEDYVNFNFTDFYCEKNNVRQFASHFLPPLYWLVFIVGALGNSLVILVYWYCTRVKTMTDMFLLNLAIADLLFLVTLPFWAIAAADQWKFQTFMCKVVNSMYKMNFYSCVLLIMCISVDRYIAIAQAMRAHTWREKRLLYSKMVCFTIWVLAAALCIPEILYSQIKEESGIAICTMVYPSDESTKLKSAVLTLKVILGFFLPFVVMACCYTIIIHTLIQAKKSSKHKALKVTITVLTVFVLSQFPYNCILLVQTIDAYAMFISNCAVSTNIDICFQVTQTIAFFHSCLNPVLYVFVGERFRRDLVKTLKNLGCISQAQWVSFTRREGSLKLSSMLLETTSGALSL
As to the kind of experiment: Calcium mobilization in Molt4 cells. The settings on record: digestions at 1 nM, all proteases and fluids tested. Type of experiment: cell-based. As for the experimental part:
as §2

The test system of experiment [2] is human monocytes. The experiment in a line: Calcium mobilization in freshly isolated human monocytes. Type of experiment: cell-based. The procedure: as §2, §3
Experiment [3] relates to human monocytes. As to the kind of experiment: Chemotaxis of human monocytes. The class given is cell-based. The procedure: as §1
(§4) Chemotaxis assays. L1.2-CCR1 and L1.2-FPRL1 transfectants, monocytes and neutrophils were collected by centrifugation and resuspended in HBSS with 0.1% BSA. The assays were performed in 96-well ChemoTx® microplates (Neuroprobe, Rockville, Md.). Chemokines were diluted in HBSS with 0.1% BSA and added to the lower wells (final volume 29 μL), then 20 μL of cell suspension (5×10^6 cells/mL for monocytes; 2.5×10^6 cells/mL for neutrophils) were added to the polycarbonate filters (5 μm pore size for monocytes and FPRL1 transfectants; 3 μm pore size for neutrophils). After incubation for 90 min (37° C., 100% humidity, 5% CO2), the filters were removed and the cells that migrated into the lower chamber were quantified by using the CyQuant cell proliferation assay kit (Molecular Probes, Oreg.).

In experiment [4] the test system is monocyte-derived dendritic cells. The experiment in a line: Calcium mobilization in monocyte-derived dendritic cells. The class given is cell-based, human. The settings on record: immature DC; after digestion with chymase, cathepsin G, elastase, synovial fluid or PMN sup #1. As for the experimental part: Human monocytes were obtained from buffy coats purchased from the Stanford Blood Bank (Palo Alto, Calif.) by sedimentation on Ficoll-Paque (Amersham, Piscataway, N.J.) and selection with anti-CD14 magnetic beads (Miltenyi, Auburn, Calif.) according to the manufacturers' instructions. For generation of dendritic cells, monocytes were cultured for 6 days in RPMI-1640 medium containing 10% FBS (HyClone, Logan, Utah). On days 0, 2 and 4, GM-CSF and IL-4 (both purchased from R&D Systems, Minneapolis, Minn.) were added to the cultures at 1000 WHO unit/ml each. The cells were confirmed to be CD14^−CD1a^+ immature DC by FACS staining on day 6.
as §2
Immature and mature DC preparation. Immature DCs were derived by culturing CD14+ monocytes in T-175 cultured flasks at a density of 10^6 cells/ml in RPMI supplemented with 10% FBS. Recombinant human cytokines GM-CSF and IL-4 (final concentration 1000 and 500 U/ml, respectively) were added on day 0, 2, 4 and 6. Cells were harvested on day 6 as immature DCs and characterized for surface marker expression by flow cytometry. DC maturation was carried out by culturing day-6 immature DCs in RPMI-10% FBS supplemented with GM-CSF, IL-4 and 50 μg/ml polyIC (Sigma, St. Louis Mo.). After two more days of culture, cells were harvested as mature DCs and characterized by surface marker expression by flow cytometry.
as §3

In another experiment the test system is human neutrophils. As to the kind of experiment: Chemotaxis of human neutrophils. The class given is cell-based. The procedure:
as §1, §4

The target in experiment [5] is T2, CCR1. As to the kind of experiment: Competition binding with 125I-MIP-1α on human monocytes. On the set-up: endogenous in cells; host or cells: human CD14+ monocytes from buffy coats. The procedure: Binding assay. Competition binding studies were conducted using monocytes, L1.2-CCR1 or L1.2-FPRL1 cells. Cells were incubated for 3 hr at 4° C. with ^125I-MIP-1α (final concentration ˜0.05 nM) or ^125I-WKYMVm (final concentration ˜0.01 nM) in buffer (25 mM HEPES, 140 mM NaCl, 1 mM CaCl2, 5 mM MgCl2 and 0.2% BSA, adjusted to pH 7.1) in the presence of increasing amounts of unlabeled chemokine. Reactions were aspirated onto PEI-treated GF/B glass filters using a cell harvester (Packard). Filters were washed twice (25 mM HEPES, 500 mM NaCl, 1 mM CaCl2, 5 mM MgCl2, adjusted to pH 7.1). Scintillant (MicroScint-10; 35 μl) was added to the filters and counted in a Packard Topcount scintillation counter. Data were analyzed and plotted using Prism (GraphPad Software, San Diego, Calif.).

The mark [6] stands for this setting: 10 nM input chemokine, after digestion with proteases and fluids.
Where [7] appears, read: 10 nM, undigested or recombinant chemokine.
Setting [8] is: undigested chemokine or peptide, 100 nM (CCL23β up to 250 nM).

B1: CCL9/MIP-1γ: recombinant murine C6* chemokine (protein, listed as Homo sapiens)
chain: QITHATETKEVQSSLKAQQGLEIEMFHMGFQDSSDCCLSYNSRIQCSRFIGYFPTSGGCTRPGIIFISKRGFQVCANPSDRRVQRCIERLEQNSQPRTYKQ
Regarding B1, in the experiment with L1.2-CCR1 cells, the “chemotaxis potency of truncated forms versus full-length chemokine” value is “greater potency”. Further, the results for the calcium mobilization entry with CCR1 [1] (setting [6]) and in the experiment with CCR1 [1] (setting [7]) were “uniformly active” and “either not active or weakly active”, respectively.

B2: CCL25/TECK: non-C6* β-chemokine signaling through CCR9 (protein, UniProt O15444 24-150, looked up)
C-C motif chemokine 25: QGVFEDCCLAYHYPIGWAVLRRAWTYRIQEVSGSCNLPAAIFYLPKRHRKVCGNPKSREVQRAMKLLDARNKVFAKLHHNTQTFQAGPHAVKKLSSGNSKLSSSKFSNPISSSKRNVSLLISANSGL
As for B2, in the experiment with CCR9, the “signaling through CCR9 after digestion” value was “inactivated”.

B3: CCL6/C10: recombinant murine C6* chemokine (protein, listed as Homo sapiens)
chain: GLIQEMEKEDRRYNPPIIHQGFQDTSSDCCFSYATQIPCKRFIYYFPTSGGCIKPGIIFISRRGTQVCADPSDRRVQRCLSTLKQGPRSGNKVIA
For B3, the calcium mobilization entry in the experiment on human monocytes [2] (100 nM after digestion with chymase, cathepsin G, elastase or synovial fluid) is “mobilized calcium”; with human monocytes [2] (setting [8]), “unable to induce calcium mobilization”; in the experiment with CCR1 [1] (setting [6]) it was “uniformly active”; with CCR1 [1] (setting [7]), “either not active or weakly active”. Moreover, the chemotaxis result in the experiment with human monocytes [3] (200 nM after digestion with chymase, cathepsin G or elastase) is reported as “stimulated chemotaxis”. In addition, the “concentration with the most migration” value in the experiment on human monocytes [3] (after digestion with synovial fluid #1) is 2 nM. In addition, in experiment [4], the “calcium mobilization versus full-length chemokine” value is “more efficacious”. Moreover, the “chemotaxis potency of truncated forms versus full-length chemokine” value with L1.2-CCR1 cells was “greater potency”.

B4: CCL23Δ24/MPIF-1: Recombinant CCL23/CKβ8 lacking the N-terminal 24 residues (46-120) (protein)
chain: RFHATSADCCISYTPRSIPCSLLESYFETNSECSKPGVIFLTKKGRRFCANPSDKQVQVCMRMLKLDTRIKTRKN
In the case of B4, the calcium mobilization entry in the experiment on human monocytes [2] (setting [8]) is “strong calcium responses”. For the same molecule, the chemotaxis entry with human monocytes [3] (undigested) is given as “moderately strong chemoattraction”; in the experiment with human neutrophils, “unable to induce migration”. The “inhibition of 125I-MIP-1α binding” value in the experiment with CCR1 [5] was “most potent competitor”. Further, the “calcium mobilization in the CCR1 transfectant” value in the experiment with CCR1 [1] (L1.2 cells stably expressing human CCR1) was “effective at inducing calcium mobilization”.
